Experimental data from the supplement of paper PMC9170038.

Tested on: MS2 coat protein
Test: apparent KD of MS2 coat protein; designed switch direction (-1 OFF switch, 1 ON switch): -1; higher = weaker reporter binding
Summary of the method: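 Designed RNA switches were transcribed on Illumina chips by stalled E. coli RNA polymerase and titrated with SNAP-549-labelled MS2 coat protein from 0.7 or 1.5 nM, doubling to 3 µM. Step length ran from 0.8–1.5 h at the lowest concentration to 10–20 min at the highest. The apparent KD is the median over clusters for each design, from curve-fitted normalised cluster fluorescence.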

[1] = input ligand: microRNA oligo, concentration not stated
[2] = Eterna round: R95, input ligand: microRNA oligo, concentration not stated
[3] = Eterna round: R95, input ligand: FMN 200 uM
[4] = Eterna round: R95, input ligand: none

Sequence | apparent KD of MS2 coat protein (input ligand: FMN 200 uM) | apparent KD of MS2 coat protein (input ligand: none) | apparent KD of MS2 coat protein [2] | further results
AAGUAUCAUGUAGGAUAUGCUAUCCGAACGGUAGCAGAAGGACAUGAGGAUCACCCAUGUUCUCAUCUGUGAGAACAGAUGUCU [Ex NG1 #5] (Eterna round: R96, puzzle: Exclusion NG 1) | 95.2 nM | 22.3 nM |  | apparent KD of MS2 coat protein [1]: 19.4 nM
AAGUGGUGAGGAUAUAUAUACCAAUCUUCGAGGCACGACCAACAUGAGGAUCACCCAUGUAGAAGGCACCACAA [Eternabot (Original) Solution 39] (Eterna round: R97, puzzle: Exclusion 2) | 32.7 nM | 14.9 nM |  | 
AAUAAACUAGGAUAUACAUGAGGAUCACCCAUGUGUCGCCACGUGCUUGCUCACUCGUGUAGAAGGAGUACGGA [Atisan] (puzzle: Exclusion 3) |  |  | 33.4 nM | 
AAUAAAGGCCGAGGAUAUCGGAAAGGAAGUGUACGAGAAGGCGGCAAAAGAACAUGAGGAUCACCCAUGUGGGCCGAUCUUCCG [PowerStrip EXNG 1.2] (Eterna round: R96, puzzle: Exclusion NG 1) | 26.4 nM | 18 nM |  | apparent KD of MS2 coat protein [1]: 10 nM
AAUAAAGGCCGAGGAUAUCGGAAAGGAAGUGUACGAGAAGGUGGCAAAAGAACAUGAGGAUCACCCAUGUGGGCCGAUCUUCCG [PowerStrip EXNG 1.4] (Eterna round: R96, puzzle: Exclusion NG 1) | 33.3 nM | 29.9 nM |  | apparent KD of MS2 coat protein [1]: 28.8 nM
AAUAACAAGCAGAUCCUAAACAUGAGGAUCACCCAUGUGCUCGUCUUGUAAAGUACUAUCACGAAAGUGAUAGUACA [Sensor 3, v1 - 59] (puzzle: Sensor v3, turn-off variant 1) |  |  | 186 nM | apparent KD of MS2 coat protein [3]: 67.5 nM; apparent KD of MS2 coat protein [4]: 76.5 nM
AAUAACAAGUUGAUCCUACACAUGAGGAUCACCCAUGUGCUCGUCUUGUAAAGUACUAUCACGAAAGUGAUAGUACA (Eterna round: R97, puzzle: Sensor, turn-off variant 1) | 50.2 nM | 66 nM |  | 
AAUAACAGAGGAUAUACUGUUUUAUGUAUUUAUUAUUUUAAACAUGAGGAUCACCCAUGUAGAAGGCUGAAUGA [JMF 55] (puzzle: Exclusion 2) |  |  | 20.7 nM | 
AAUAACAUGUUGAUCAAAUACAUGAGGAUCACCCAUGUAUGCUUUUUGCUCGAUAAGAUCAACUAAUAAUAAUAAUA [StovNew/1-A] (Eterna round: R97, puzzle: Sensor, turn-off variant 1) | 14 nM | 15.6 nM |  | 
AAUAACGAGCCGAUCCUCCACAUGAGGAUCACCCAUGUGUUCGUCUUGUAAAGUACUAUCACGAAAGUGAUAGUACA [mod jandersonlee] (Eterna round: R97, puzzle: Sensor, turn-off variant 1) | 1100 nM | 1040 nM |  | 
AAUAAGCAAGGAUAUACGACGCAGAGCGUCAGUGGGCGAUGACAUGAGGAUCACCCAUGUAGAAGGUGCACAUC [Veisbebi] (puzzle: Exclusion 2) |  |  | 81.5 nM | 
AAUAAGCUAGGAUAUACAUGAGGAUCACCCAUGUCCACGCUCUGGAGGGCUGAAUGAUGUAGAAGGAGCAGUGG [Zabier] (puzzle: Exclusion 3) |  |  | 19.2 nM | apparent KD of MS2 coat protein [3]: 17.2 nM; apparent KD of MS2 coat protein [4]: 13.9 nM
AAUAAUAAAGUCAGGAUAUCUAGAGCUGCGGCUCUAGAGAAGGGACAUGAGGAUCACCCAUGUCACUCAAUAAU [BmEx4/3-D3] (Eterna round: R97, puzzle: Brourd's mod of Exclusion 4) | 18.1 nM | 14.7 nM |  | 
AAUAAUCAUGUAGGAUAUGCGUGGCGAAGCUAUGCAGAAGGACAUGAGGAUCACCCAUGUUCUAGCGUCUGCGUACAGAUGCUA [Mat - Exclusion NG 1 - Mod of JL - D79] (Eterna round: R96, puzzle: Exclusion NG 1) | 123 nM | 37.1 nM |  | apparent KD of MS2 coat protein [1]: 36.6 nM
AAUACAAGCUAUUGAUCCCACAUGAGGAUCACCCAUGUAGGUGGCGGUGACACCUCCUUUACGAUAGCUCGUCUUAU [Sensor-V1 #54] (Eterna round: R97, puzzle: Sensor, turn-off variant 1) | 141 nM | 226 nM |  | 
AAUACUAACACGAAAGUGUUAGUAAAAUAAGCUUGUGGUACAUGAGGAUCACCCAUGUCCUCAUAAGCUCGUCUUAU [Mat - Sensor v3 - Turn-off var 2 - D43] (puzzle: Sensor v3, turn-off variant 2) |  |  | 75.4 nM | apparent KD of MS2 coat protein [3]: 23 nM; apparent KD of MS2 coat protein [4]: 21.4 nM
AAUCCACAUGAGGAUCACCCAUGUCAGGAUAUCGCGCGCGCGUUUUCGGUCUCGCGCGCGAGAAGGGACGGCUG (puzzle: Exclusion 1) |  |  | 22 nM | 
AAUCCACAUGAGGAUCACCCAUGUCAGGAUAUCGCGCGCGCGUUUUCGGUCUUUCGCGCGAGAAGGGACGACUG (puzzle: Exclusion 1) |  |  | 14.1 nM | 
AAUGAUUGACGAGGAUAUUGUGGUAAAACACGACGAGAAGGCGUAUGUCACAUGAGGAUCACCCAUGUGAGCUUUGUGGAUAUA [Ex NG1 #71] (Eterna round: R96, puzzle: Exclusion NG 1) | 31.4 nM | 35.5 nM |  | apparent KD of MS2 coat protein [1]: 23.4 nM
AAUGUUGAUGUGAGGAUAUACAUAGUUUGACCGUAGUAGAAGGCACAUGAGGAUCACCCAUGUAGAUGUUUGGU [JR_BME4_Sub004] (puzzle: Brourd's mod of Exclusion 4) |  |  | 12.5 nM | 
AAUUAACAUGUAGGAUAUCUGCACGUGUAGUGCAGAGAAGGACAUGAGGAUCACCCAUGUAUAGCGACUUCGGUCGCAAUAAUU [ENG1/2-B3] (Eterna round: R96, puzzle: Exclusion NG 1) | 313 nM | 140 nM |  | apparent KD of MS2 coat protein [1]: 119 nM
AAUUAGUAUGUGAGGAUAUUGAUGUAAUGACGGUUUAAGAAGGCACAUGAGGAUCACCCAUGUAGGUGCUCACG [JR_BMEx4_Sub007] (Eterna round: R97, puzzle: Brourd's mod of Exclusion 4) | 380 nM | 70.4 nM |  | 
AAUUAGUAUGUGAGGAUAUUGAUGUAAUGAUGGUUUAAGAAGGCACAUGAGGAUCACCCAUGUAGGAAAUCACG [JR_BMEx4_Sub006] (Eterna round: R97, puzzle: Brourd's mod of Exclusion 4) | 37.8 nM | 29 nM |  | 
AAUUAUUAUUGAGGAUAUCGUAUUGAAACAAUACGAGAAGGCGGAAUAAACAUGAGGAUCACCCAUGUGAGCCUGAUGCUUGUG [Ex NG1 #42] (Eterna round: R96, puzzle: Exclusion NG 1) |  |  |  | apparent KD of MS2 coat protein [1]: 13.4 nM
AAUUCACAUGAGGAUCACCCAUGUCAGGAUAUGGUUUCACGUGUUUCGGUGCUUGAGGCCAGAAGGGACAGCUA (puzzle: Exclusion 1) |  |  | 62.4 nM | 
AAUUCACAUGAGGAUCACCCAUGUCAGGAUAUGGUUUCACGUUUUUCUUUUCUUGAGGCCAGAAGGGACAGCUA (puzzle: Exclusion 1) |  |  | 60.1 nM | 
AAUUCGGCAGGAUAUACAUGAGGAUCACCCAUGUAAAUUUUUCGUUUAACUUGAAUGUGUAGAAGGGCCAUUAA [Ex3 #63] (Eterna round: R97, puzzle: Exclusion 3) | 27.6 nM | 28.8 nM |  | 
